Assay results reported in patent publication US20240190960A1 (Chugai, published 2024).
Numbering of substitutions follows the chain as printed.

B1: CLA0022 Fab fragment (from CLA0022VH-F760mnP17/CLA0022VL-k0C) (Fab, V domains shown)
VH: QSLEESGGDLVKPGASLTLTCTASGFSFSSSYWIYWVRQAPGKGLEWIACIYAGVNDITYYANWAKGRFTISKTSSTTVTLQMTSLTAADTATYFCAKGSPDDAFHSWGPGTLVTVSS
VL: DVVMTQTPASVSEPVGGTVTIKCQASQSIGNYLAWYQQKPGQPPKLLIYYASNLASGVSSRFKGSRSGTEFTLTINDLECADAATYYCQCAYYDSVYVTFGGGTEVVVKR
notes: Fab prepared from the full antibody with the Pierce Fab Preparation Kit; Rabbit-derived variable regions on human constant regions; also called clamping antibody CLA0022
B2: CLA0028 Fab fragment (from CLA0028VH-F760mnP17/CLA0028VL-k0C) (Fab, V domains shown)
VH: B1 VH with V55S, N56T, D57S, I58S, N63S, S100G
VL: B1 VL with N76S, D94E, V96S
notes: also called clamping antibody CLA0028
B3: SC001 (antibody, human IgG1, lambda, V domains shown)
VH: QVQLVQSGGGVVQPGRSLRLSCAASGFTFSSYAMHWVRQAPGKGLEWVAVISYDGSNKYYADSVKGRFTISRDNSKNTLYLQMNSLRAEDTAVYYCARVYQGGATPYYYYGMDVWGQGTMVTVSS
VL: SYELTQPPSASGTPGQRVTVSCSGSTSNIGNHAVNWYQQLPGTAPKLLIYTNDQRPSGVPNRFSGSKSGISASLAISGLQSEDEADYYCSAWDDSLIGYVFGAGTKVTVLG
notes: also called adenosine-clamping antibody SC001
B4: SC044 (antibody, human IgG1, lambda, V domains shown)
VH: not shown
VL: QSVLTQPPSVSGAPGQRVTISCTGSSSNIGAGYDVHWYQQLPGTAPKLLIYGNSNRPSGVPDRFSGSKSGTSASLAITGLQAEDEADYYCQSYDDSRSAVVFGGGTKLTVLG
notes: also called adenosine-clamping antibody SC044
B5: SC045 (antibody, human IgG1, lambda, V domains shown)
VH: QVQLVESGGGLVQPGGSLRLSCAASGFTFSDHYMDWVRQAPGKGLEWVGRTRNKANSYTTEYAASVKGRFTISRDDSKNSLYLQMNSLKTEDTAVYYCARGPTLAYIGYMDYWGQGTLVTVSS
VL: B4 VL with D95G, R97L, A99V
notes: also called adenosine-clamping antibody SC045
B6: SC016 (antibody, human IgG1, lambda, V domains shown)
VH: EVQLVQSGGGLVQPGRSLRLSCAASGFTFDNHAMHWVRQAPGKGLEWVSRINWNSGGIDYADSVKGRFTISRDNAKNSLYLQMNSLRAEDTALYYCVKDRGSGWYDAFDLWGQGTMVTVSS
VL: SYELTQPPSVSVAPGQTTRIACGGDSVGSESVHWYQQRPGQAPVLVISYDSDRPSGIPERFSGSKSGNTATLTISRVEAGDEADYYCQVWNSASDHWVFGGGTKLTVLG
notes: also called adenosine-clamping antibody SC016
B7: SC002 (antibody, human IgG1, lambda, V domains shown)
VH: EVQLVQSGAEVKKPGASVKVSCKASGYTFTSYGISWVRQAPGQGLEWMGWISAYNGNTNYAQKLQGRVTMTTDTSTSTAYMELRSLRSDDTAVYYCARVSSGSQPDPPYYYYYGMDVWGQGTMVTVSS
VL: QSVLTQPASVSGSPGQSITISCTGTSSNVESYNLVSWYQQHPGKAPKFIIYEGTRRPSGISNRFSGANSGNAASLTISGLQAEDEADYYCLSYVPSRRRHVFGTGTKVTVLS
notes: also called adenosine-clamping antibody SC002
B8: SC048 (antibody, human IgG1, lambda, V domains shown)
VH: QVQLQESGGGVVQPGRSLRLSCAASGFTFSSYAMHWVRQAPGKGLEWVAVISYDGSNKYYADSVKGRFTISRDNSKNTLYLQMNSLRAEDTAVYYCAKGYSYGPGYFFDYWGQGTLVTVSS
VL: SSELTQPPSVSVSPGQTANISCSADKLGGKYVSWYQQKPGQSPVLVMYQDKKRPSGIPERLSGSGSGNTATLTISGTQAMDEATYYCQTWDGRSLFFGGGTRLTVLS
notes: also called adenosine-clamping antibody SC048
B9: SC019 (antibody, human IgG1, lambda, V domains shown)
VH: EVQLVESGGGLVKPGGSLRLSCAASGFTFSDYYMSWIRQAPGKGLEWVSYISSSGSTIYYADSVKGRFTISRDNAKNSLYLQMNSLRAEDTAVYYCARASPNVNEGAFDIWGQGTMVTVSS
VL: QSVLTQPPSMSAAPGQKVTISCSGSGSNIGSSYVSWYQQLPGKAPRLLIYDNNKQVSWVPDRFSGSKSGTSASLVISGLQTGDEADYYCGTWDRSLSAGVFGGGTKVTVLG
notes: also called adenosine-clamping antibody SC019
B10: SC003 (antibody, human IgG1, lambda, V domains shown)
VH: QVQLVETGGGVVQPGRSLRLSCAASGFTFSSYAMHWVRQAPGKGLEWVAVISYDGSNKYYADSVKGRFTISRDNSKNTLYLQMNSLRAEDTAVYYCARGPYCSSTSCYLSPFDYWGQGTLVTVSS
VL: QSVLTQPPSVSAAPGQKVTISCSGNTSNIGNNYVSWYQQLPGTAPKLLIYRNSDRPSGVPDRFSGSKSGTSASLAITGLQAEDEADYYCQSYDTSLTAVIFGGGTKLTVLG
notes: also called adenosine-clamping antibody SC003
B11: SC014 (antibody, human IgG1, lambda, V domains shown)
VH: EVQLVQSGGGLVQPGRSLRLSCAASGFTFDDYAMHWVRQAPGKGLEWVSGISWNSGSIGYADSVKGRFAISRDNAKNSLYLQMNSLRAEDTALYYCAKAWNDDAFDIWGQGTMVTVSS
VL: QSVVTQPPSVSGAPGQRVTVSCTGSNSNIGAGYDVHWYQQLPGTAPKLLIYGSNNRPSGVPDRFSASRSGTSASLAITGLQAEDEAEYYCQTYDTGLSGPGVVFGGGTKVTVLS
notes: also called adenosine-clamping antibody SC014
B12: SC034 (antibody, human IgG1, lambda, V domains shown)
VH: QVQLQQSGAEVKKPGASVKVSCKASGYTFTSYGISWVRQAPGQGLEWMGWISAYNGNTNYAQKLQGRVTMTTDTSTSTAYMELRSLRSDDTAVYYCARDYHSTRPDWPPFPYYYYYGMDVWGQGTTVTVSS
VL: QSVLTQPHSVSESPGKTVTISCTRSSGRIAANNVQWYQQRPGSAPTTIIYEDNRRPSGVPDRFSGSIDGSSNSASLTISGLKPEDEADYYCQSYVSTTVVFGGGTKLTVLG
notes: also called adenosine-clamping antibody SC034
B13: SC032 (antibody, human IgG1, kappa, V domains shown)
VH: QVQLQQSGAEVKKPGSSVKVSCKASGGTFSSYAISWVRQAPGQGLEWMGRIIPILGIANYAQKFQGRVTITADKSTSTAYMELSSLRSEDTAVYYCAREGLTPYYYGSELGNGMDVWGQGTTVTVSS
VL: DIQLTQSPSSLSTFVGDRVTITCRTSQNINSYLNWYQQKPGKAPKLLISTTSNLQSGVPSRFSGSGSGTDFTLTINNLQPEDFAIYYCQQTKSFPLTFGGGTKLEIKR
notes: also called adenosine-clamping antibody SC032
B14: CLA0311 Fab fragment (from CLA0311VH-F760mnP17/CLA0311VL-k0C) (Fab, V domains shown)
VH: QSLEESGGGLVQPEGSLTLTCTASGFSLSSSYWICWVRQAPGKGLEWIGCIYTGSGGATHYASWAKGRFTISKTSSTTVTLQMTSLTAADTATYFCASAESGYYAGFFFAPWGPGTLVTVSS
VL: AFELTQTPSSVEAAVGGTVTIKCQASESIYSGLAWYKQKPGQPPKLLIYSASTLASGVSSRFKGSGSGTQFTLTISDLECADAATYYCQSYYGGSVTGYNTFGGGTEVVVKR
notes: Fab prepared from the full antibody with the Pierce Fab Preparation Kit; also called clamping antibody CLA0311

target: T1, CD3ε epitope-fused CE115HA146 (CE115HAGP13-rabIgG/GLS3000-rabk); test: SPR (Biacore T200), ligand captured on protein A, Fab 0-400 nM as analyte, 37 C
T1 construct: stands for the antigen/antibody complex; Rabbit constant regions; also called CE115HAPG13
T1 sequence (heavy, as listed by the source, chain 1 of 2): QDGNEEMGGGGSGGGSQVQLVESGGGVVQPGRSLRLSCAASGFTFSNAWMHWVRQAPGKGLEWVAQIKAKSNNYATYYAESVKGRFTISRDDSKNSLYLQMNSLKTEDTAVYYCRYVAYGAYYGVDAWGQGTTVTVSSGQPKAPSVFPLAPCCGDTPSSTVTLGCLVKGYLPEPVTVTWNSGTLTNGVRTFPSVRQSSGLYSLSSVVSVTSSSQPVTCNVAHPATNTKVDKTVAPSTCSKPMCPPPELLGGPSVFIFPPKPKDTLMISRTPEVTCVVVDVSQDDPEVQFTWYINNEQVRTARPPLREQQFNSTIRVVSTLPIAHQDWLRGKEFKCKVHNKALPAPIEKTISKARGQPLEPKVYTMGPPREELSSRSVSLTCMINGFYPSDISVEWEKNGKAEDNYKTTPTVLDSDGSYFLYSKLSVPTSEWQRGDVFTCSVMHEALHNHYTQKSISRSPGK
T1 sequence (light, as listed by the source, chain 2 of 2): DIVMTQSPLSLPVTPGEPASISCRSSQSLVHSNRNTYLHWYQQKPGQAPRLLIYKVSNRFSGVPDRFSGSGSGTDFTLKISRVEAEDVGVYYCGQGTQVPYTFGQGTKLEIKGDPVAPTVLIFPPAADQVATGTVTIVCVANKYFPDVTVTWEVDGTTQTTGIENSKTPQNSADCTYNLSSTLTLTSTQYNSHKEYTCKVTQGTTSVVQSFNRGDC
Method: (§1) SuRe protein A (GE Healthcare) prepared at 25 μg/mL using Acetate4.5 (GE Healthcare) was immobilized on sensor chip CM4 at approximately 1000 RU per flow cell using an amine coupling kit (GE Healthcare).
(§2) The sensor chip was regenerated by passing Glycine1.5 and 25 mM NaOH, each at a flow rate of 30 μL/min for 15 seconds. The dissociation constant KD (M) was calculated based on the association rate constant ka (1/Ms) and the dissociation rate constant kd (1/s), which are kinetic parameters calculated from the sensorgram obtained by the measurement. Biacore T200 Evaluation Software (GE Healthcare) was used for calculation of each parameter.

Question: For B1, which Kd is on record?
Answer: Its Kd is 17 nM.

Question: With B2 as the binder, how does the Kd read?
Answer: Its Kd is 78 nM.

target: T2, CD3ε epitope-fused CE115HA056 (CE115HAGP12-rabIgG/GLS3000-rabk); test: as above
T2 construct: rabbit constant regions; also called CE115HAPG12
T2 sequence (heavy, as listed by the source, chain 1 of 2): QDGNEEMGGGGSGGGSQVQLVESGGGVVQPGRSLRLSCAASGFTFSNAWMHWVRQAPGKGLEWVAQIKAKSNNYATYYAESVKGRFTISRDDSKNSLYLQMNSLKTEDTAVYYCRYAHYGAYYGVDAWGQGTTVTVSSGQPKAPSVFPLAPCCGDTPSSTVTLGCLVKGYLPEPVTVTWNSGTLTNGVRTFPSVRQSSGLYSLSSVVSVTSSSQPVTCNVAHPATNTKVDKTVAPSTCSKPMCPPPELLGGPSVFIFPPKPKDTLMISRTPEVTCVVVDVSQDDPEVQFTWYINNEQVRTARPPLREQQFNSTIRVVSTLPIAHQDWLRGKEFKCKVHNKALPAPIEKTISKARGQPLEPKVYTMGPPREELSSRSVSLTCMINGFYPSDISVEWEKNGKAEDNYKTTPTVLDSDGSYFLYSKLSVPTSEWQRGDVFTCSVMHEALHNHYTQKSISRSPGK
Method: as §1, §2

Question: How did the Kd turn out when B1 was run?
Answer: Its Kd is 14 nM.

Question: With B2 as the binder, how does the Kd read?
Answer: Its Kd is 74 nM.

target: T3, adenosine-binding antibody SMB0002hH-G1m3/SMB0002hL-k0a; test: BLI (OctetHTX), target on streptavidin sensor, antibody 10 ug/mL, 30 C, with and without adenosine
T3 construct: also called biotinylated SMB0002hH-G1m3/SMB0002hL-k0
T3 sequence (VH, as listed by the source, chain 1 of 2): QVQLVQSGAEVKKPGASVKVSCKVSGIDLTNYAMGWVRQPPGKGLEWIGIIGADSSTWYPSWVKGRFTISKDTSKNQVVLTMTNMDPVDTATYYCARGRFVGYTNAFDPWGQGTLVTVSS
T3 sequence (V domain, as listed by the source, chain 2 of 2): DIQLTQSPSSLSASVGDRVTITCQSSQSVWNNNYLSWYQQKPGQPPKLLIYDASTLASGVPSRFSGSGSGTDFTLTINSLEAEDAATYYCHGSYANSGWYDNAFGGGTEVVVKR
Method: Evaluation of the binding of each prepared and purified antibody to a complex of adenosine with an adenosine-binding antibody was performed using OctetHTX (ForteBio). Specifically, biotinylated SMB0002Fab prepared by the method described in Example 9, which was prepared with TBS or adenosine/TBS or SMB0002hH-G1m3/SMB0002hL-k0a biotinylated with EZ-Link Sulfo-NHS-SS-Biotin was bound to Dip and Read™ Streptavidin (SA) Biosensors (ForteBio). Subsequently, each purified antibody prepared at 10 μg/mL using TBS or adenosine/TBS was allowed to act, and the binding at 30° C. was evaluated.

Question: Does B3 bind?
Answer: Result: binds

Question: Does B4 bind?
Answer: Result: binds

Question: Does B5 bind?
Answer: Result: binds

Question: Does B6 bind?
Answer: Result: binds

Question: Does B7 bind?
Answer: Result: binds

Question: Does B8 bind?
Answer: Result: binds

Question: Does B9 bind?
Answer: Result: binds

Question: Does B10 bind?
Answer: Result: binds

Question: Does B11 bind?
Answer: Result: binds

Question: Does B12 bind?
Answer: Result: binds

Question: Does B13 bind?
Answer: Result: binds

target: CD3 antibody CE115HA146 (CE115HA146-F760mnP17/GLS3000-k0); test: SPR (Biacore), 37 C; ligand antibody captured on SuRe protein A chip (1000 RU), Fab as analyte at 100 nM for 180 s; amount of binding per 1 RU of ligand
Sequence (heavy, as listed by the source, chain 1 of 2): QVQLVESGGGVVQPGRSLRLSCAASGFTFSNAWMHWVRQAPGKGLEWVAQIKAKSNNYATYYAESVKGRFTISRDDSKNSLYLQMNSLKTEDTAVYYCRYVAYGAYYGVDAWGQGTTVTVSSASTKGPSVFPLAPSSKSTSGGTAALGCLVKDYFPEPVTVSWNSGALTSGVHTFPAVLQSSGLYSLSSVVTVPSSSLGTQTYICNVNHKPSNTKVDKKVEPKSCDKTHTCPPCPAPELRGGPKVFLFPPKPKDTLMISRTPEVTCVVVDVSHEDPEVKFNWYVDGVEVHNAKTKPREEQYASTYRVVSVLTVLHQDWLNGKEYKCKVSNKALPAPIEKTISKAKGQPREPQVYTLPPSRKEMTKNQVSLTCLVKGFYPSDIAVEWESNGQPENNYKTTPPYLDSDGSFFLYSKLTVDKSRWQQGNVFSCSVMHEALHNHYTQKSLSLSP
Sequence (light, as listed by the source, chain 2 of 2): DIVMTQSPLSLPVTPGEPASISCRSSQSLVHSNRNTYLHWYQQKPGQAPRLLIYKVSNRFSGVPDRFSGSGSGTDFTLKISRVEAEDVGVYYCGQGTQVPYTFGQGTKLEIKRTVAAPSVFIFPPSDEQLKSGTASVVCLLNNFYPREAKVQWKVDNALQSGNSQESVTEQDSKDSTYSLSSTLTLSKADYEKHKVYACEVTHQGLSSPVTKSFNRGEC
Method: as §1
(§3) First, to evaluate the binding specificity of the clamping antibodies, a ligand was reacted at 37° C. for 60 seconds at a flow rate of 10 μL/min to capture 1000 RU, and an analyte prepared at 100 nM was allowed to act for 180 seconds at a flow rate of 30 μL/min, and the amount of binding was measured.

Question: Does B14 bind?
Answer: Result: no binding (tested: 100 nM)

Question: Does B1 bind?
Answer: Result: no binding (tested: 100 nM)

Question: Does B2 bind?
Answer: Result: no binding (tested: 100 nM)

target: T4, negative control IC17 (IC17Hdk-F760mnP17/IC17L-k0); test: as above
T4 construct: also called anti-KLH antibody
T4 sequence (VH, as listed by the source, chain 1 of 2): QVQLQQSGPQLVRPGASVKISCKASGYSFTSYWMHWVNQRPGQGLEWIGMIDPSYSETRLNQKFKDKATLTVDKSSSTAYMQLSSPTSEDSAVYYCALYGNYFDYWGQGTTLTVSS
T4 sequence (VL, as listed by the source, chain 2 of 2): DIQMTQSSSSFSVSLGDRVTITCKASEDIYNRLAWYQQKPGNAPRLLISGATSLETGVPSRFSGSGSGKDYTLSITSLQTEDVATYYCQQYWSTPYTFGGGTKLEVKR
Method: as §1, §3

Question: Does B14 bind?
Answer: Result: no binding (tested: 100 nM)

Question: Does B1 bind?
Answer: Result: no binding (tested: 100 nM)

Question: Does B2 bind?
Answer: Result: no binding (tested: 100 nM)

target: T5, CD3ε epitope-fused GPC3 antibody (hGC33VHGP01-rabCH1hG1m/hGC33VL-rabk); test: as above
T5 construct: control for recognition of the peptide alone
T5 sequence (VH, as listed by the source, chain 1 of 2): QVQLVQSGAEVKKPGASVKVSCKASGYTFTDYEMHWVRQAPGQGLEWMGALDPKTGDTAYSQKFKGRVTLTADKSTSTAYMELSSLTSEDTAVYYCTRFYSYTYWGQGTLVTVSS
T5 sequence (VL, as listed by the source, chain 2 of 2): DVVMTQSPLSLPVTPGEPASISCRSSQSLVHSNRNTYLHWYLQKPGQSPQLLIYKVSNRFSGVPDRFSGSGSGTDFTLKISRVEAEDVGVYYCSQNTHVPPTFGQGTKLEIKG
Method: as §1, §3

Question: Does B14 bind?
Answer: Result: no binding (tested: 100 nM)

Question: Does B1 bind?
Answer: Result: no binding (tested: 100 nM)

Question: Does B2 bind?
Answer: Result: no binding (tested: 100 nM)

target: CD3 antibody CE115HA000 (CE115HA000-F760mnP17/GLS3000-k0); test: as above
Sequence (VH, as listed by the source, chain 1 of 2): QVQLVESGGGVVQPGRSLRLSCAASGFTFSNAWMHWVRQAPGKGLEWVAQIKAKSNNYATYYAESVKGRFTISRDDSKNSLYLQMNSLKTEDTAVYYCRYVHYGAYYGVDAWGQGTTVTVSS
Sequence (VL, as listed by the source, chain 2 of 2): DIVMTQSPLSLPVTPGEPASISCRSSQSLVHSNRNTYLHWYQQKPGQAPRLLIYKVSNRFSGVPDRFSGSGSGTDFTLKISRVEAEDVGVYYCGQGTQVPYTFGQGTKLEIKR
Method: as §1, §3

Question: Does B14 bind?
Answer: Result: no binding (tested: 100 nM)

Question: Does B1 bind?
Answer: Result: no binding (tested: 100 nM)

Question: Does B2 bind?
Answer: Result: no binding (tested: 100 nM)

target: CD3 antibody CE115HA056 (CE115HA056-F760mnP17/GLS3000-k0); test: as above
Sequence (heavy, as listed by the source, chain 1 of 2): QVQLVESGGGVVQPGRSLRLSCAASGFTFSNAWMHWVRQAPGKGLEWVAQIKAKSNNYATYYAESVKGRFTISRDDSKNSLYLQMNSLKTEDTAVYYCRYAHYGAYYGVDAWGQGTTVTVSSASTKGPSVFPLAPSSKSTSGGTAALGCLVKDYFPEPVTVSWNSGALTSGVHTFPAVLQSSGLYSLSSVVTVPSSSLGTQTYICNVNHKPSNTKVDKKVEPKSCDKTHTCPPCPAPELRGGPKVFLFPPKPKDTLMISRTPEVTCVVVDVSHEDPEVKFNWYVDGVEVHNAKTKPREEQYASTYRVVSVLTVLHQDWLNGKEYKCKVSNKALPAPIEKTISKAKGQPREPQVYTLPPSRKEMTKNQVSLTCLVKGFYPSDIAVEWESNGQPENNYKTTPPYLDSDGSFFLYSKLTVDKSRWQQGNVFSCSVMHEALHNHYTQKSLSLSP
Method: as §1, §3

Question: Does B14 bind?
Answer: Result: no binding (tested: 100 nM)

Question: Does B1 bind?
Answer: Result: no binding (tested: 100 nM)

Question: Does B2 bind?
Answer: Result: no binding (tested: 100 nM)
